Numbered stars: 1 amine (or outer) side, 2 acyl side, 3 side chain; on linkers, the order of the positions; unused ones are H or OH. Bridge positions count the residues as written; N and C are the ends. Square brackets hold non-standard residues; d marks the D form. Primed or numbered codes have the meaning given here. Ends that are not written are not given here. * marks the point of attachment. Phe(2,3-F2) = (2S)-3-(2,3-difluorophenyl)-2-aminopropanoic acid, O=C([C@H](Cc1cccc(F)c1F)N[*:1])[*:2]; TTDS = 1,13-diamino-4,7,10-trioxatridecan-succinamic acid, O=C(CCC(=O)[*:2])NCCCOCCOCCOCCCN[*:1]; Tranexamic″ = tranexamic acid, NC[C@H]1CC[C@@H](C(=O)*)CC1; NH(CH2CH2O)5CH2CO = O=C(COCCOCCOCCOCCOCCN[*:1])[*:2]; NH(CH2CH2O)4CH2CO = O=C(COCCOCCOCCOCCN[*:1])[*:2]; Pro(4-spirocPr) = O=C(O)[C@@H]1CC2(CC2)CN1; Oic = O=C(O)[C@@H]1C[C@@H]2CCCC[C@@H]2N1; PEG8 = NCCOCCOCCOCCOCCOCCOCCOCCOCCC(=O)O; PEG7 = NCCOCCOCCOCCOCCOCCOCCOCCC(=O)O; PEG6 = NCCOCCOCCOCCOCCOCCOCCC(=O)O; tBuAla = CC(C)(C)C[C@H](N)C(=O)O; PEG5 = NCCOCCOCCOCCOCCOCCC(=O)O; PEG4 = NCCOCCOCCOCCOCCC(=O)O; Pen = CC(C)(S)[C@H](N)C(=O)O; Tranexamic = tranexamic acid; PEG3 = NCCOCCOCCOCCC(=O)O; Orn = NCCC[C@H](N)C(=O)O; Sar = CNCC(=O)O
T1: recombinant human MASP1 active protease (amino acids 297-699, C-terminal His Tag) (human, UniProt P48740 297-699)
T1 sequence: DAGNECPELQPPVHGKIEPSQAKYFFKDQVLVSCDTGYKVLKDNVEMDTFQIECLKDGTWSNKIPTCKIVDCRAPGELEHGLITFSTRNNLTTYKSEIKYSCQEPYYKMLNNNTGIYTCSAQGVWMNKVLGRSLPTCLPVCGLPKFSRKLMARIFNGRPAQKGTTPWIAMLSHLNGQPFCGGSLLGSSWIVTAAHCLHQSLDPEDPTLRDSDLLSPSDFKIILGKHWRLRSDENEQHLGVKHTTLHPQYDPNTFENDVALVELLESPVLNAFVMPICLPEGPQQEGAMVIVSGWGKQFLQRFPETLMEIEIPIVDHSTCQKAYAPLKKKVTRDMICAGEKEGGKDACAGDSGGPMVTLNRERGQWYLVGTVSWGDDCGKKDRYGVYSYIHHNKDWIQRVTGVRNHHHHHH

B1: Example 421: (Tranexamic)-IC+SRS-((tBu)A)-PPI-(Pen)+IP-(PEG2(13 atoms))-NH2 (peptide)
peptide: {Tranexamic″}-ICSRS[tBuAla]PPI[Pen]IP-{PEG3-NH2}
modifications: disulfide 2-10
SMILES: CC[C@H](C)[C@@H]1NC(=O)[C@@H]2CCCN2C(=O)[C@@H]2CCCN2C(=O)[C@H](CC(C)(C)C)NC(=O)[C@H](CO)NC(=O)[C@H](CCCNC(=N)N)NC(=O)[C@H](CO)NC(=O)[C@@H](NC(=O)[C@@H](NC(=O)[C@H]2CC[C@@H](CN)CC2)[C@@H](C)CC)CSSC(C)(C)[C@@H](C(=O)N[C@H](C(=O)N2CCC[C@H]2C(=O)NCCOCCOCCOCCC(N)=O)[C@@H](C)CC)NC1=O
B2: Example 422: (Tranexamic)-IC+SRS-((tBu)A)-PPI-(Pen)+IP-(PEG4-CH2CO2H (15 atoms))-NH2 (peptide)
peptide: {Tranexamic″}-ICSRS[tBuAla]PPI[Pen]IP-{NH(CH2CH2O)4CH2CO-NH2}
modifications: disulfide 2-10
SMILES: CC[C@H](C)[C@@H]1NC(=O)[C@@H]2CCCN2C(=O)[C@@H]2CCCN2C(=O)[C@H](CC(C)(C)C)NC(=O)[C@H](CO)NC(=O)[C@H](CCCNC(=N)N)NC(=O)[C@H](CO)NC(=O)[C@@H](NC(=O)[C@@H](NC(=O)[C@H]2CC[C@@H](CN)CC2)[C@@H](C)CC)CSSC(C)(C)[C@@H](C(=O)N[C@H](C(=O)N2CCC[C@H]2C(=O)NCCOCCOCCOCCOCC(N)=O)[C@@H](C)CC)NC1=O
B3: Example 423: (Tranexamic)-IC+SRS-((tBu)A)-PPI-(Pen)+IP-(PEG3(16 atoms))-NH2 (peptide)
peptide: {Tranexamic″}-ICSRS[tBuAla]PPI[Pen]IP-{PEG4-NH2}
modifications: disulfide 2-10
SMILES: CC[C@H](C)[C@@H]1NC(=O)[C@@H]2CCCN2C(=O)[C@@H]2CCCN2C(=O)[C@H](CC(C)(C)C)NC(=O)[C@H](CO)NC(=O)[C@H](CCCNC(=N)N)NC(=O)[C@H](CO)NC(=O)[C@@H](NC(=O)[C@@H](NC(=O)[C@H]2CC[C@@H](CN)CC2)[C@@H](C)CC)CSSC(C)(C)[C@@H](C(=O)N[C@H](C(=O)N2CCC[C@H]2C(=O)NCCOCCOCCOCCOCCC(N)=O)[C@@H](C)CC)NC1=O
B4: Example 424: (Tranexamic)-IC+SRS-((tBu)A)-PPI-(Pen)+IP-(PEG5-CH2CO2H (18 atoms))-NH2 (peptide)
peptide: {Tranexamic″}-ICSRS[tBuAla]PPI[Pen]IP-{NH(CH2CH2O)5CH2CO-NH2}
modifications: disulfide 2-10
SMILES: CC[C@H](C)[C@@H]1NC(=O)[C@@H]2CCCN2C(=O)[C@@H]2CCCN2C(=O)[C@H](CC(C)(C)C)NC(=O)[C@H](CO)NC(=O)[C@H](CCCNC(=N)N)NC(=O)[C@H](CO)NC(=O)[C@@H](NC(=O)[C@@H](NC(=O)[C@H]2CC[C@@H](CN)CC2)[C@@H](C)CC)CSSC(C)(C)[C@@H](C(=O)N[C@H](C(=O)N2CCC[C@H]2C(=O)NCCOCCOCCOCCOCCOCC(N)=O)[C@@H](C)CC)NC1=O
B5: Example 425: (Tranexamic)-IC+SRS-((tBu)A)-PPI-(Pen)+IP-(PEG5(22 atoms))-NH2 (peptide)
peptide: {Tranexamic″}-ICSRS[tBuAla]PPI[Pen]IP-{PEG6-NH2}
modifications: disulfide 2-10
SMILES: CC[C@H](C)[C@@H]1NC(=O)[C@@H]2CCCN2C(=O)[C@@H]2CCCN2C(=O)[C@H](CC(C)(C)C)NC(=O)[C@H](CO)NC(=O)[C@H](CCCNC(=N)N)NC(=O)[C@H](CO)NC(=O)[C@@H](NC(=O)[C@@H](NC(=O)[C@H]2CC[C@@H](CN)CC2)[C@@H](C)CC)CSSC(C)(C)[C@@H](C(=O)N[C@H](C(=O)N2CCC[C@H]2C(=O)NCCOCCOCCOCCOCCOCCOCCC(N)=O)[C@@H](C)CC)NC1=O
B6: Example 426: (Tranexamic)-IC+SRS-((tBu)A)-PPI-(Pen)+IP-(PEG7(25 atoms))-NH2 (peptide)
peptide: {Tranexamic″}-ICSRS[tBuAla]PPI[Pen]IP-{PEG7-NH2}
modifications: disulfide 2-10
SMILES: CC[C@H](C)[C@@H]1NC(=O)[C@@H]2CCCN2C(=O)[C@@H]2CCCN2C(=O)[C@H](CC(C)(C)C)NC(=O)[C@H](CO)NC(=O)[C@H](CCCNC(=N)N)NC(=O)[C@H](CO)NC(=O)[C@@H](NC(=O)[C@@H](NC(=O)[C@H]2CC[C@@H](CN)CC2)[C@@H](C)CC)CSSC(C)(C)[C@@H](C(=O)N[C@H](C(=O)N2CCC[C@H]2C(=O)NCCOCCOCCOCCOCCOCCOCCOCCC(N)=O)[C@@H](C)CC)NC1=O
B7: Example 427: (Tranexamic)-IC+SRS-((tBu)A)-PPI-(Pen)+IP-(PEG8(28 atoms))-NH2 (peptide)
peptide: {Tranexamic″}-ICSRS[tBuAla]PPI[Pen]IP-{PEG8-NH2}
modifications: disulfide 2-10
SMILES: CC[C@H](C)[C@@H]1NC(=O)[C@@H]2CCCN2C(=O)[C@@H]2CCCN2C(=O)[C@H](CC(C)(C)C)NC(=O)[C@H](CO)NC(=O)[C@H](CCCNC(=N)N)NC(=O)[C@H](CO)NC(=O)[C@@H](NC(=O)[C@@H](NC(=O)[C@H]2CC[C@@H](CN)CC2)[C@@H](C)CC)CSSC(C)(C)[C@@H](C(=O)N[C@H](C(=O)N2CCC[C@H]2C(=O)NCCOCCOCCOCCOCCOCCOCCOCCOCCC(N)=O)[C@@H](C)CC)NC1=O
B8: Example 430: ((N-Me)G)-IC+SRS-((tBu)A)-PPI-(Pen)+IP-(Orn)-(Orn)-(Orn)-NH2 (peptide)
peptide: [Sar]ICSRS[tBuAla]PPI[Pen]IP[Orn][Orn][Orn]-NH2
modifications: disulfide 3-11; N-terminus assumed
SMILES: CC[C@H](C)[C@H](NC(=O)CNC)C(=O)N[C@H]1CSSC(C)(C)[C@@H](C(=O)N[C@H](C(=O)N2CCC[C@H]2C(=O)N[C@@H](CCCN)C(=O)N[C@@H](CCCN)C(=O)N[C@@H](CCCN)C(N)=O)[C@@H](C)CC)NC(=O)[C@H]([C@@H](C)CC)NC(=O)[C@@H]2CCCN2C(=O)[C@@H]2CCCN2C(=O)[C@H](CC(C)(C)C)NC(=O)[C@H](CO)NC(=O)[C@H](CCCNC(=N)N)NC(=O)[C@H](CO)NC1=O
B9: Example 433: ((N-Me)G)-IC+SRS-((tBu)A)-PPI-(Pen)+IPD-((N-Me)G)-((N-Me)G)-((N-Me)G)-NH2 (peptide)
peptide: [Sar]ICSRS[tBuAla]PPI[Pen]IPD[Sar][Sar][Sar]-NH2
modifications: disulfide 3-11; N-terminus assumed
SMILES: CC[C@H](C)[C@H](NC(=O)CNC)C(=O)N[C@H]1CSSC(C)(C)[C@@H](C(=O)N[C@H](C(=O)N2CCC[C@H]2C(=O)N[C@@H](CC(=O)O)C(=O)N(C)CC(=O)N(C)CC(=O)N(C)CC(N)=O)[C@@H](C)CC)NC(=O)[C@H]([C@@H](C)CC)NC(=O)[C@@H]2CCCN2C(=O)[C@@H]2CCCN2C(=O)[C@H](CC(C)(C)C)NC(=O)[C@H](CO)NC(=O)[C@H](CCCNC(=N)N)NC(=O)[C@H](CO)NC1=O
B10: Example 439: ((N-Me)G)-IC+SRS-((tBu)A)-P-((6S)-5-Azaspiro[2.4]heptane-6-carboxylic acid)-I-(Pen)+IP-NH2 (peptide)
peptide: [Sar]ICSRS[tBuAla]P[Pro(4-spirocPr)]I[Pen]IP-NH2
modifications: disulfide 3-11; N-terminus assumed
SMILES: CC[C@H](C)[C@H](NC(=O)CNC)C(=O)N[C@H]1CSSC(C)(C)[C@@H](C(=O)N[C@H](C(=O)N2CCC[C@H]2C(N)=O)[C@@H](C)CC)NC(=O)[C@H]([C@@H](C)CC)NC(=O)[C@@H]2CC3(CC3)CN2C(=O)[C@@H]2CCCN2C(=O)[C@H](CC(C)(C)C)NC(=O)[C@H](CO)NC(=O)[C@H](CCCNC(=N)N)NC(=O)[C@H](CO)NC1=O
B11: Example 440: ((N-Me)G)-IC+SRS-((2S)-3-(2,3-difluorophenyl)-2-aminopropanoic acid)-PPI-(Pen)+IP-NH2 (peptide)
peptide: [Sar]ICSRS[Phe(2,3-F2)]PPI[Pen]IP-NH2
modifications: disulfide 3-11; N-terminus assumed
SMILES: CC[C@H](C)[C@H](NC(=O)CNC)C(=O)N[C@H]1CSSC(C)(C)[C@@H](C(=O)N[C@H](C(=O)N2CCC[C@H]2C(N)=O)[C@@H](C)CC)NC(=O)[C@H]([C@@H](C)CC)NC(=O)[C@@H]2CCCN2C(=O)[C@@H]2CCCN2C(=O)[C@H](Cc2cccc(F)c2F)NC(=O)[C@H](CO)NC(=O)[C@H](CCCNC(=N)N)NC(=O)[C@H](CO)NC1=O

Assays:
[1] = target: T1, recombinant human MASP1 active protease …; assay: cell-based or functional assay
[2] = target: recombinant human MASP2 active protease (amino acids 297-686, C-terminal His Tag) (human, UniProt O00187 297-686); assay: cell-based or functional assay
Sequence of recombinant human MASP2 active protease (amino acids 297-686, C-terminal His Tag) (O00187 other isoform, or with tags, fused parts or gaps limits assumed): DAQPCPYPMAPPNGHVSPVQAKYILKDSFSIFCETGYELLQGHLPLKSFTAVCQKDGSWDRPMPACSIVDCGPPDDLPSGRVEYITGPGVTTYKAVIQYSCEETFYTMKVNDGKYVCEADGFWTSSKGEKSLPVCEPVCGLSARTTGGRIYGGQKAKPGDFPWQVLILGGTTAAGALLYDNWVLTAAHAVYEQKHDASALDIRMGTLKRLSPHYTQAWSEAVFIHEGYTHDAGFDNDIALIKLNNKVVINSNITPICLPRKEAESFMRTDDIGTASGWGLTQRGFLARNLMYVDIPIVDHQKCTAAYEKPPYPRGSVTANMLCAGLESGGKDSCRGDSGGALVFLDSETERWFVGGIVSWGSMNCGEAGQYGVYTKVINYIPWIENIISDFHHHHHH

Binder | human MASP1 IC50 [1] [nM] | human MASP2 IC50 [2] [nM]
B1 | 5 | 9.8
B2 | 8.1 | 12
B3 | 5.7 | 12
B4 | 6.6 | 11
B5 | 7.7 | 13
B6 | 9.1 | 15
B7 | 10 | 15
[Tranexamic]ICSRS[tBuAla]PPI[Pen]IP[TTDS]-NH2 (disulfide 3-11) [Example 429: (Tranexamic)-IC+SRS-((tBu)A)-PPI-(Pen)+IP-(TTDS)-NH2] | 6.9 | 12
B8 | 1.4 | 91
B9 | 1.7 | 120
[Tranexamic]ICSRS[tBuAla]PPI[Pen]IP[PEG5]-NH2 (disulfide 3-11) [Example 435: (Tranexamic)-IC+SRS-((tBu)A)-PPI-(Pen)+IP-(PEG4(19 atoms))-NH2] | 9.2 | 17
[Sar]ICSRSLP[Oic]I[Pen]IPP[(2S)‑3‑(Triazol-1-yl)‑2‑(amino)propanoic acid]-NH2 (disulfide 3-11) | 2.3 | 44
[Sar]ICSRSLP[Oic]I[Pen]IP[(2S)‑3‑(Triazol-1-yl)‑2‑(amino)propanoic acid]-NH2 (disulfide 3-11) [Example 437: ((N-Me)G)-IC+SRSLP-(Oic)-I-(Pen)+IP-((2S)-3-(Triazol-1-yl)-2-(amino)propanoic acid)-NH2] | 2.2 | 76
[Sar]ICSRSLP[Oic]I[Pen]IP[5‑Azaspiro(2.4)heptane‑1‑carboxylic acid]-OH (disulfide 3-11) [Example 438: ((N-Me)G)-IC+SRSLP-(Oic)-I-(Pen)+IP-((5-Azaspiro[2.4]heptane-1-carboxylic acid)-OH] | 2.9 | 83
B10 | 3.2 | 15
B11 | 18 | 26
